Source: paper PMC7345789
Changes are numbered by the printed parent chain.

B1: SHP2 N-SH2, Q06124 (protein)
chain: WFHPNITGVEAENLLLTRGVDGSFLARPSKSNPGDFTLSVRRNGAVTHIKVQNTGDYYDLYGGEKFATLAELVQYYMEHHGQLKEKNGDVIELKYPL
B2: SHP2 N-SH2, Q06124 (protein)
chain: B1 chain with L14A, V51I
B3: SHP2 N-SH2, Q06124 (protein)
chain: B1 chain with V51I, L69A
B4: SHP2 N-SH2, Q06124 (protein)
chain: B1 chain with V51I, L83A
B5: SHP2 N-SH2, Q06124 (protein)
chain: B1 chain with V51I, I91V
B6: SHP2 N-SH2, Q06124 (protein)
chain: B1 chain with A45G, V51I
B7: SHP2 N-SH2, Q06124 (protein)
chain: B1 chain with V51I, V90A
B8: SHP2 N-SH2, Q06124 (protein)
chain: B1 chain with T37S, V51I
B9: SHP2 N-SH2, Q06124 (protein)
chain: B1 chain with V51I, T68S
B10: SHP2 N-SH2, Q06124 (protein)
chain: B1 chain with V9A, V51I
B11: SHP2 N-SH2, Q06124 (protein)
chain: B1 chain with T17S, V51I
B12: SHP2 N-SH2, Q06124 (protein)
chain: B1 chain with T7S, V51I
B13: SHP2 N-SH2, Q06124 (protein)
chain: B1 chain with V51I, L60A
B14: SHP2 N-SH2, Q06124 (protein)
chain: B1 chain with V51I, V73A
B15: SHP2 N-SH2, Q06124 (protein)
chain: B1 chain with A26G, V51I
B16: SHP2 N-SH2, Q06124 (protein)
chain: B1 chain with V20A, V51I
B17: SHP2 N-SH2, Q06124 (protein)
chain: B1 chain with I6V, V51I
B18: SHP2 N-SH2, Q06124 (protein)
chain: B1 chain with V51I, A67G
B19: SHP2 N-SH2, Q06124 (protein)
chain: B1 chain with V40A, V51I
B20: SHP2 N-SH2, Q06124 (protein)
chain: B1 chain with V51I, A70G
B21: SHP2 N-SH2, Q06124 (protein)
chain: B1 chain with T47S, V51I
B22: SHP2 N-SH2, Q06124 (protein)
chain: B1 chain with I49V, V51I
B23: SHP2 N-SH2, Q06124 (protein)
chain: B1 chain with V51I, T54S

These binders were tested against Gab2 (Homo sapiens) (assay: flow).
B1 was tested, and the Kd was 30 nM. For B2, the Kd was 170 nM. Binder B3 has a Kd of 210 nM. In the case of B4, the Kd is reported as 730 nM. For B5, the Kd was 100 nM. For B6, the Kd was 70 nM. In the case of B7, the Kd is reported as 130 nM. With B8 the Kd was 5 nM. Binder B9 has a Kd of 110 nM. In the case of B10, the Kd is reported as 160 nM. Work on B11 yielded a Kd of 100 nM. B12 gave a Kd of 80 nM. For B13, the Kd was 860 nM. In the case of B14, the Kd is reported as 190 nM. Work on B15 yielded a Kd of 70 nM. With B16 the Kd was 100 nM. Binder B17 has a Kd of 80 nM. B18 gave a Kd of 170 nM. With B19 the Kd was 230 nM. B20 was tested, and the Kd was 110 nM. In the case of B21, the Kd is reported as 10 nM. B22 gave a Kd of 150 nM. B23 showed a Kd of 120 nM.
